Starred links: 1 amine or outer side, 2 acyl side, 3 side chain; linkers in the order of their positions; H or OH if unused. Positions of bridges follow the written chain, without caps; N, C: chain ends. Residues, ends and D or L forms follow the SMILES beside them. TBMB = c1c(C[*:1])cc(C[*:3])cc1C[*:2]; mXylylene = c1cc(C[*:1])cc(C[*:2])c1

The series can be described thus: circular dichroism. Particulars: PBS 10 mM; pH 7.4; 25 °C; 10 uM.
In turn, Ac-WAAAKAAAAKALAALGF-NH2 yielded a helicity of 38%. In the case of `CC[C@H](C)[C@H](NC(=O)[C@H](CCCNC(=N)N)NC(C)=O)C(=O)N[C@@H](C)C(=O)N[C@@H](CCCNC(=N)N)C(=O)N[C@@H](CC(C)C)C(=O)N[C@@H](CCC(=O)O)C(=O)N[C@@H](CCC(=O)O)C(=O)N[C@H]1CSCc2cc3cc(c2)CSC[C@H](NC(=O)[C@H](CCCCN)NC(=O)[C@H](Cc2ccc(O)cc2)NC1=O)C(=O)NCC(=O)N[C@H](C(N)=O)CSC3` (Ac-RIARLEECYKCGC-NH2; linker 8-11-13 via TBMB), the helicity is 48%. In the case of `CC(=O)N[C@@H](C)C(=O)N[C@@H](C)C(=O)N[C@@H](C)C(=O)N[C@@H](C)C(=O)N[C@@H](CCCCN)C(=O)N[C@@H](Cc1c[nH]c2ccccc12)C(=O)N[C@H]1CSCc2cc3cc(c2)CSC[C@H](NC(=O)[C@H](C)NC(=O)[C@H](C)NC1=O)C(=O)NCC(=O)N[C@H](C(N)=O)CSC3` (Ac-AAAAKWCAACGC-NH2; linker 7-10-12 via TBMB), the helicity was found to be 59%. The value for `CC(=O)N[C@@H](C)C(=O)N[C@@H](C)C(=O)N[C@@H](C)C(=O)N[C@@H](C)C(=O)N[C@@H](CCCCN)C(=O)N[C@@H](C)C(=O)N[C@@H](C)C(=O)N[C@@H](C)C(=O)N[C@@H](C)C(=O)N[C@@H](CCCCN)C(=O)N[C@@H](Cc1c[nH]c2ccccc12)C(=O)N[C@H]1CSCc2cc3cc(c2)CSC[C@H](NC(=O)[C@H](C)NC(=O)[C@H](C)NC1=O)C(=O)NCC(=O)N[C@H](C(N)=O)CSC3` (Ac-AAAAKAAAAKWCAACGC-NH2; linker 12-15-17 via TBMB) was 65%. Ac-AAAAKAAAAKAW-NH2: the helicity was 17%.

Molecule `CC(=O)N[C@@H](C)C(=O)N[C@@H](C)C(=O)N[C@@H](C)C(=O)N[C@@H](C)C(=O)N[C@@H](CCCCN)C(=O)N[C@@H](C)C(=O)N[C@@H](C)C(=O)N[C@@H](C)C(=O)N[C@@H](C)C(=O)N[C@@H](CCCCN)C(=O)N[C@@H](Cc1c[nH]c2ccccc12)C(=O)N[C@H]1CSCc2cc3cc(c2)CSC[C@H](NC(=O)[C@H](C)NC(=O)[C@H](C)NC1=O)C(=O)N[C@@H](C)C(=O)N[C@H](C(N)=O)CSC3` (Ac-AAAAKAAAAKWCAACAC-NH2; linker 12-15-17 via TBMB) showed a helicity of 33%. Ac-RIARLEEKYK-NH2 displayed a helicity of 17%. Then Ac-WAAAKAAAAKALAAIGV-NH2, with 37%. The value for `CC(=O)N[C@@H](C)C(=O)N[C@@H](C)C(=O)N[C@@H](C)C(=O)N[C@@H](C)C(=O)N[C@@H](CCCCN)C(=O)N[C@@H](Cc1c[nH]c2ccccc12)C(=O)N[C@H]1CSCc2cccc(c2)CSC[C@@H](C(=O)NCC(=O)N[C@@H](C)C(N)=O)NC(=O)[C@H](C)NC(=O)[C@H](C)NC1=O` (Ac-AAAAKWCAACGA-NH2; linker 7-10 via mXylylene) was 33%; that for Ac-WAAAKAAAAKALAALGY-NH2 was 45%; that for `CC[C@H](C)[C@@H]1NC(=O)[C@@H](NC(=O)[C@H](C)NC(=O)[C@H](CC(C)C)NC(=O)[C@H](CCC(N)=O)NC(=O)[C@H](CCCNC(=N)N)NC(=O)[C@H](C)NC(=O)[C@@H](NC(=O)[C@H](CCC(N)=O)NC(C)=O)C(C)C)CSCc2cc3cc(c2)CSC[C@H](NC(=O)[C@H](Cc2ccc(O)cc2)NC1=O)C(=O)NCC(=O)N[C@H](C(N)=O)CSC3` (Ac-QVARQLACIYCGC-NH2; linker 8-11-13 via TBMB) was 38%. Then Ac-WAAAKAAAAKALAALGW-NH2, with 44%. Molecule Ac-QVARQLAEIY-NH2 returned a helicity of 8%.

Turning to Ac-WAAAKAAAAKALAALGV-NH2, the helicity was found to be 44%. The value for Ac-AAAAKAAAAKAAAAKAW-NH2 was 48%. Then Ac-WAAAKAAAAKALAALGL-NH2, with 54%; and Ac-WAAAKAAAAKALAALGI-NH2, with 52%; and `CC(=O)N[C@@H](C)C(=O)N[C@@H](C)C(=O)N[C@@H](C)C(=O)N[C@@H](C)C(=O)N[C@@H](CCCCN)C(=O)N[C@@H](Cc1c[nH]c2ccccc12)C(=O)N[C@H]1CSCc2cccc(c2)CSC[C@@H](C(N)=O)NC(=O)CNC(=O)[C@H](C)NC(=O)[C@H](C)NC(=O)[C@H](C)NC1=O` (Ac-AAAAKWCAAAGC-NH2; linker 7-12 via mXylylene), with 34%.

Values taken from paper PMC9951308.
